3 molecules from paper PMC2710861 can be followed below.

The target in series [1] is RPA heterotrimer (RPA70/RPA32/RPA14);Rad52 (human;human, UniProt P27694;P15927;P35244;P43351 1-616;1-270;1-121;1-418, |). In words: SEC-MALS and UV cross-linking. On the technique in general: SEC sorts molecules by how far they enter the pores of the column.
Series [2] deals with RPA heterotrimer (RPA70/RPA32/RPA14) (human, UniProt P27694;P15927;P35244 1-616;1-270;1-121). In words: EMSA. (In EMSA bound probe runs differently from free probe, usually more slowly.)
Sequence of RPA heterotrimer (RPA70/RPA32/RPA14) (P27694 whole entry, chain 1 of 3): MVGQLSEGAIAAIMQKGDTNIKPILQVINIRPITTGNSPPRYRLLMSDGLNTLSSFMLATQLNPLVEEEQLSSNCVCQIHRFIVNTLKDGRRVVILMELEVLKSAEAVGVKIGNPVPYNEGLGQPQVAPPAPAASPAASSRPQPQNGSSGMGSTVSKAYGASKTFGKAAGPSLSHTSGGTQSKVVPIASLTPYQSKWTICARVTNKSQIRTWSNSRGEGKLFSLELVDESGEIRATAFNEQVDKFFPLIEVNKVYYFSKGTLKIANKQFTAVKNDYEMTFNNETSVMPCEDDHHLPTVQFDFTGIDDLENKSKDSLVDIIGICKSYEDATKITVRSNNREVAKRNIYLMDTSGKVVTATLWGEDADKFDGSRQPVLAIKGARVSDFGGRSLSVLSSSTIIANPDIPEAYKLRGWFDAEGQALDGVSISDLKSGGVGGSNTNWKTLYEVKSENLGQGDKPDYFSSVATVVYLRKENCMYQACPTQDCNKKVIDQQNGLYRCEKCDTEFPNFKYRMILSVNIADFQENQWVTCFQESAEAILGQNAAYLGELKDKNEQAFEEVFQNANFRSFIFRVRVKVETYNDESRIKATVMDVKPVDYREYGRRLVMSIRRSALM
Sequence of RPA heterotrimer (RPA70/RPA32/RPA14) (P15927 whole entry, chain 2 of 3): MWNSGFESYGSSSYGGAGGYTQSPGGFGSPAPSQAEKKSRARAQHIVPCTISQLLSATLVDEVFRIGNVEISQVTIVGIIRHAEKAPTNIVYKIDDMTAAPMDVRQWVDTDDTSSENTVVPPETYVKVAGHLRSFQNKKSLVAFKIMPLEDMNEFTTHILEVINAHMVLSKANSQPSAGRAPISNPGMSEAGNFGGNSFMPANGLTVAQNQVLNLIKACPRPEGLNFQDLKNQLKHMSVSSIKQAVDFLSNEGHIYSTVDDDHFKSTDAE
Sequence of RPA heterotrimer (RPA70/RPA32/RPA14) (P35244 whole entry, chain 3 of 3): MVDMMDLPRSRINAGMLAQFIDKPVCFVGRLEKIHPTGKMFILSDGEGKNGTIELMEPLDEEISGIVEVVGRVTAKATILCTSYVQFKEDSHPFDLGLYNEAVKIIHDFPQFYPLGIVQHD
In series [3] the target is T1, Rad52 (human, UniProt P43351 1-418).
T1 sequence: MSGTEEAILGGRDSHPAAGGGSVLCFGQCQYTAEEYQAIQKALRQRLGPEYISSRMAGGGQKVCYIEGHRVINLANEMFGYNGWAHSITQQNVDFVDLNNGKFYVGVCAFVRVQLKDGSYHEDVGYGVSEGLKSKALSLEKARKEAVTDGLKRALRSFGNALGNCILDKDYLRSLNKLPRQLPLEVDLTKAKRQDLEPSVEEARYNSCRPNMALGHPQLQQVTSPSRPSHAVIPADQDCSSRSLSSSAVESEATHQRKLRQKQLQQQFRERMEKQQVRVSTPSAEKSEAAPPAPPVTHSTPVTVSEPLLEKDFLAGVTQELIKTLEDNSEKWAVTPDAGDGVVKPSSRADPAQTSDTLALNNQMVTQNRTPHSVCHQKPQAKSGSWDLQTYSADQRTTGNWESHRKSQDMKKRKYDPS
In words: UV cross-linking.

Series [4] deals with T1, Rad52. In words: SEC-MALS.
For series [5], the target named is T1, Rad52. In words: EMSA.

Sequence of RPA heterotrimer (RPA70/RPA32/RPA14);Rad52 (P27694 whole entry, chain 1 of 3): as the sequence (P27694 whole entry, chain 1 of 3) above
Sequence of RPA heterotrimer (RPA70/RPA32/RPA14);Rad52 (P15927 whole entry, chain 2 of 3): as the sequence (P15927 whole entry, chain 2 of 3) above
Sequence of RPA heterotrimer (RPA70/RPA32/RPA14);Rad52 (P35244 whole entry, chain 3 of 3): as the sequence (P35244 whole entry, chain 3 of 3) above

As for GCTAGCTCAATTCATCGACAAACCT (ssDNA) [25-mer mixed sequence ssDNA, 3'-biotin], the binding result in series [1], in series [2] and in series [3] was “binds” in each case.

Take GCTAGCTCAATTCATCGACAAACCTCCTCGCTCAATTCATAGTC (ssDNA) [44-mer mixed sequence ssDNA]: in series [4], the binding result was “binds”.

In the case of GCTAGCTCAATTCATCGACAAACCT (ssDNA) [25-mer mixed sequence ssDNA, 5'-biotin], the binding result in series [5] is “binds”.
